Molecular target: epidermal growth factor receptor (Homo sapiens (A431, HeLa cells), UniProt P00533)
Test: flow cytometry on cells

B1: GPI-anchored HA-tagged R2 nanobody (DAF-R2) displayed on Neuro2A extracellular vesicles (VHH)
VHH: QVQLQESGGGLVQAGGSLRLSCAASGRAASGHGHYGMGWFRQVPGKEREFVAAIRWSGKETWYKDSVKGRFTISRDNAKTTVYLQMNSLKGEDTAVYYCAARPVRVADISLPVGFDYWGQGTQVTVSS
binding result: no binding (tested: 5 µg/mL)

— article PMC4793259 (Journal of Extracellular Vesicles, 2016)
